In publication PMC4815982:

Biological target: AROS (UniProt Q86WX3)
Test: Flag-SIRT1 IP, HA-AROS immunoblot
Conditions: reference: wild type, Adriamycin-treated; sites S682

binding against the reference: stronger
Substance: SIRT1 (from UniProt Q96EB6) S682A, Adriamycin-treated
